Measured values: article PMC6451128, “Structural and functional analysis of the nucleotide and DNA binding activities of the human PIF1 helicase”
Where a chain is given by its changes, count along the chain named.

Legend:
Settings in all cases: protein: recombinant; tags: His tag removed, GSRM left; label: 5' 32P (PNK)
hPIF1HD R294A = biological target: T1, hPIF1HD R294A (human, UniProt Q9H611 206-620, R294A); assay: EMSA; no nucleotide; apparent; 20 mM HEPES-NaOH pH 7.5 (Results say pH 7.2), 135 mM NaCl, 5% glycerol, 1 mM DTT, 1 mg/ml BSA, 20 min at 20 C; 0.4 nM T(35); G4 assay: 0.1 nM G4 DNA, 2% PEG 8000 instead of glycerol, 5 uM T(35) competitor
T1 sequence: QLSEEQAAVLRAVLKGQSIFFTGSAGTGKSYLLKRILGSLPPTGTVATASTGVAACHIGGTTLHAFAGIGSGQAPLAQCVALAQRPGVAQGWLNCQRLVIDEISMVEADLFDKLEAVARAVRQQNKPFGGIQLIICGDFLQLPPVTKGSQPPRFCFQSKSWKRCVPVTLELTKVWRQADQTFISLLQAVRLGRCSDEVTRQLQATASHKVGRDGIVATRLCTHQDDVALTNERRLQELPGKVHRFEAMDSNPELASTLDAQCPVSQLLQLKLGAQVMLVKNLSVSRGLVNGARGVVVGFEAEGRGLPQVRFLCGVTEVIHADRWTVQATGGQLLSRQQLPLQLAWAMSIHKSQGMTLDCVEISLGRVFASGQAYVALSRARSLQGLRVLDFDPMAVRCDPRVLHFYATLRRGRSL

hPIF1HD P291A = biological target: T2, hPIF1HD P291A (human, UniProt Q9H611 206-620, P291A); assay: as above
T2 sequence: T1 sequence with P86A, A89R

hPIF1HD F573A = biological target: T3, hPIF1HD F573A (human, UniProt Q9H611 206-620, F573A); assay: EMSA; no nucleotide; 20 mM HEPES-NaOH pH 7.5 (Results say pH 7.2), 135 mM NaCl, 5% glycerol, 1 mM DTT, 1 mg/ml BSA, 20 min at 20 C; 0.4 nM T(35); G4 assay: 0.1 nM G4 DNA, 2% PEG 8000 instead of glycerol, 5 uM T(35) competitor
T3 sequence: T1 sequence with A89R, F368A

hPIF1HD K556A = biological target: T4, hPIF1HD K556A (human, UniProt Q9H611 206-620, K556A); assay: EMSA; no nucleotide; greatest defect; 20 mM HEPES-NaOH pH 7.5 (Results say pH 7.2), 135 mM NaCl, 5% glycerol, 1 mM DTT, 1 mg/ml BSA, 20 min at 20 C; 0.4 nM T(35); G4 assay: 0.1 nM G4 DNA, 2% PEG 8000 instead of glycerol, 5 uM T(35) competitor
T4 sequence: T1 sequence with A89R, K351A

B1: poly-T(35) (ssDNA)
DNA: TTTTTTTTTTTTTTTTTTTTTTTTTTTTTTTTTTT
- Kd (hPIF1HD R294A): 5.7 ± 1.6 nM
- Kd (hPIF1HD P291A): 1.9 ± 0.6 nM
- binding signal (hPIF1HD F573A): > 50 fold decrease in affinity vs WT
- binding signal (hPIF1HD K556A): > 50 fold decrease in affinity vs WT
